# Measurements: the RNAGym collection of RNA variant scans (doi:10.7554/elife.80360)
# B1: HDV Ribozyme (parent)
# chain: GGCCGGCAUGGUCCCAGCCUCCUCGCUGGCGCCGGCUGGGCAACAUUCCGAGGGGACCGUCCCCUCGGUAAUGGCGAAUGGGACCCA
# Variants of: B1
# Assay: self-cleavage, relative activity (ratio to wild type); higher = more cleavage; co-transcriptional
row,Variant,self-cleavage
1,GGCCGGCAUGGUCCAAGCCUCCUCGCUGGCGCCGGCUGGGCAACAUUCCGAGGGGACCGACCCCUCGGUAAUGGCGAAUGGGACCCA [C15A U60A],0.623
2,GGCCGGCAUGGUCCCAGCCUCCUCGCUGGCGCCGGCUGGGCAACAUUCCGAGGGGACCGUCCCCUCGUUAAUGUCGAAUGGGACCCA [G68U G74U],0.604
3,GGCCGGCAUGGGCCCAGCCCCCUCGCUGGCGCCGGCUGGGCAACAUUCCGAGGGGACCGUCCCCUCGGUAAUGGCGAAUGGGACCCA [U12G U20C],0
4,GGCCGGCAUGGUCCCAGCCUCCUCGCUGGCGCCGGCUGGGCAACAUUCCGCGGGGACCGUCCCCUCGGUAAUCGCGAAUGGGACCCA [A51C G73C],0.293
5,GGCCGGCUUGGUCCCAGCCUCCUCGCUGGCGCCGGCUGGGCAACAUUCCGAGGUGACCGUCCCCUCGGUAAUGGCGAAUGGGACCCA [A8U G54U],0.574
6,GGCCGGCAUGGUCCCAGCCCCCUCGCUGGCGCCGGCUGGGCAACAUUCUGAGGGGACCGUCCCCUCGGUAAUGGCGAAUGGGACCCA [U20C C49U],0.192
7,GGCCGGCAUGGUCCCAGCCUCCUCGCUGGCGCCGGCUGGGAAAUAUUCCGAGGGGACCGUCCCCUCGGUAAUGGCGAAUGGGACCCA [C41A C44U],0.692
8,GGCCGGCAUGGUCCCAGCCUCCUCGCUGGCGCCGGCUGGGCAACAUUCCGAGUGGACCGUCCCCUCGGUAAUGGCGUAUGGGACCCA [G53U A77U],0.623
9,GGGCGGCAUGGUCCCAGCCUCCUCGGUGGCGCCGGCUGGGCAACAUUCCGAGGGGACCGUCCCCUCGGUAAUGGCGAAUGGGACCCA [C3G C26G],0.753
10,GGCCGGCAUGGUCCCAGCCUCCUCGCUGGCGCCGGCUGGGCAACAUUCCGAGGGGACCGUCCCCUCGGUAAUGCCGAAUGGGACCGA [G74C C86G],0.201
11,GGCCGGCAUGGUCCCAGCCUCCUCGCUGGCGCCGGCGGGGCAACAUUCCGAGGGGAUCGUCCCCUCGGUAAUGGCGAAUGGGACCCA [U37G C57U],0.0405
12,GGCCGGUAUGGUCCCAGCCUCCUCGCUGGCGCCGGCUGGGCAACAUUCCGAGGGGACCGUCGCCUCGGUAAUGGCGAAUGGGACCCA [C7U C62G],0.643
13,GGCCGGCAUGGUCCCAGCCUCCUCGAUGGCGCCGGCUGGGCAACAUUCCGAGGGGACCGUCCCCUCGGUAAUGGCAAAUGGGACCCA [C26A G76A],1.03
14,GGCCGGCAUGGUCCCAGCCUCCUCGCUGGCGUCGGCUGGGCAACAUUCCGAGGGGACCGUCCCCUCGGUAAUGGCGAAUGGGACCUA [C32U C86U],0.686
15,GGCCGGCAUGGUCCCAGCCACCUCGCUGGCGCCGGCUGGGCAACCUUCCGAGGGGACCGUCCCCUCGGUAAUGGCGAAUGGGACCCA [U20A A45C],0.0639
16,GGCCGGCAAGGUCCCGGCCUCCUCGCUGGCGCCGGCUGGGCAACAUUCCGAGGGGACCGUCCCCUCGGUAAUGGCGAAUGGGACCCA [U9A A16G],1.37
17,GGCCGGCAUGGUCCCAGCCUCCUCGCUGGCGCCGGCUGGGCAACAUUCCGAGGGGACCGUCCUCUCGGUAAUGGCGAAUGGGUCCCA [C63U A83U],0.584
18,GGCCGGCAUGGUCUCAGCCUCCUCGCUGGCGCCGGCUGGGCAACAUUCCGAGGGGACCGUUCCCUCGGUAAUGGCGAAUGGGACCCA [C14U C61U],1.22
19,GGCCGGCAUGGUCCCAGCCUCCUCGCUGGCACCGGCUGGGCAACAUUCCGAGGUGACCGUCCCCUCGGUAAUGGCGAAUGGGACCCA [G31A G54U],0.197
20,GGCCGGCAAGGUCCCAGCCUCCUCGCUGGCGCCGGCUGGGCAACAUUCCGAGGGGACCGUCCCCUCGGUAAUGGCGAAUGGAACCCA [U9A G82A],0.425
21,GGCCGACAUGGCCCCAGCCUCCUCGCUGGCGCCGGCUGGGCAACAUUCCGAGGGGACCGUCCCCUCGGUAAUGGCGAAUGGGACCCA [G6A U12C],0.277
22,GGCCGGCGUGGUCCCAGCCUCCUCGCUGGCGCCGGCUGGGCAACAUUCCGAGGGGACUGUCCCCUCGGUAAUGGCGAAUGGGACCCA [A8G C58U],0.962

row,Variant,self-cleavage
1,GGCCGGCAUGGUUCCAGCCUCCUCGCUGGCGCCGGCUGGGCAACAUUCCGAGGGGACCGUCCCCUCGGUAAUGGCGAAUGGCACCCA [C13U G82C],0.277
2,GGCCGGCAUGGUCCUAGCCUCCUCGCUGGCGCCGGCUGGGCAACAUUACGAGGGGACCGUCCCCUCGGUAAUGGCGAAUGGGACCCA [C15U C48A],1.17
3,GGCCGGCAUGGUCCCAGCCUCCUCGCUGGCGCCGGCUGGGCAACAUUCCGAGGGGACCGCCCCCUCGGUAAUGGCGAUUGGGACCCA [U60C A78U],0.229
4,GGCCGGCAUGGUCCCAGCCUCCUCGCUGGCGCCGGCUGGGCAACAUUCCGAGGGGACCGUCCCCUCGGUAAUGCCGAACGGGACCCA [G74C U79C],0.181
5,GGCCGGCAUGGUCCCAGCCUCCUCGCUGGCGCCGGCUGCGCAACAUUCCGAAGGGACCGUCCCCUCGGUAAUGGCGAAUGGGACCCA [G39C G52A],0.218
6,GGCCGGCAUGGUCACAGCCUCCUCGCUGGCGCCGGCUGGGCAACAUUCCGAGGGGACCGUCCCCUCGGUAAUGGCGAAUGCGACCCA [C14A G81C],1.22
7,GGCCGGCAUGGUCCCAGCCUCCUCGCUGGCGCCGGCUGGGCAACAUUCAGAGGGGACCGUCCCCUCAGUAAUGGCGAAUGGGACCCA [C49A G67A],1.27
8,GGCCGGCAUGGUCCCACCCUCCUCGCUGGUGCCGGCUGGGCAACAUUCCGAGGGGACCGUCCCCUCGGUAAUGGCGAAUGGGACCCA [G17C C30U],0.655
9,CGCCGGCAUGGUCCCAGCCUCCUCGCUGGCGCCGGCUGGGCAACAUUCUGAGGGGACCGUCCCCUCGGUAAUGGCGAAUGGGACCCA [G1C C49U],0.145
10,GGCCGGCAUGGUCCCAGCCUCCUCGCUGGCGCCGGCUGGGCAUCACUCCGAGGGGACCGUCCCCUCGGUAAUGGCGAAUGGGACCCA [A43U U46C],0.383
11,GGCCGGCAUGGUCCCAGCCUCCUCGCUGGCGCUGGCUGGGCAACAUUCCGAGGGGACCGUCCCAUCGGUAAUGGCGAAUGGGACCCA [C33U C64A],0.591
12,GGCCGGCAUGGUCCCAGCCUCCUCGCUGGCGGCGGCUGGGCAACAUUCCGAGGGUACCGUCCCCUCGGUAAUGGCGAAUGGGACCCA [C32G G55U],0.0911
13,GGCCGGCAAGGUCCCAGCCUCCUCGCUGGCGCCGGCUGGGCAACAUUCCGAGGGGACCGUCCCCUCGGUAAUGGCGAAUGUGACCCA [U9A G81U],0.332
14,GGCCGGCAUGGUCCCAGCCUCCUCGCUGGCUCCGGCUGGCCAACAUUCCGAGGGGACCGUCCCCUCGGUAAUGGCGAAUGGGACCCA [G31U G40C],0.0519
15,GGCCGGCAUGGUCCCAGCCUCCUCGCUGGCGCCGGCUCGGCCACAUUCCGAGGGGACCGUCCCCUCGGUAAUGGCGAAUGGGACCCA [G38C A42C],0.104
16,GGCCGGCAUGGUCCCAGCCUCCUCGCUGGCGCCGACUGGGCAACAUUCCGAAGGGACCGUCCCCUCGGUAAUGGCGAAUGGGACCCA [G35A G52A],0.47
17,GGCCGGCAUGGUCCCAGCCUUCUCGCUGGCGCCGGCUGGGCAACAUUCCGAGGGGACCGUCCCCUCGGUACUGGCGAAUGGGACCCA [C21U A71C],0.293
18,GGCCGGCAUGGUCCCAGCCUUCUCGCUGGCGCCGGCUGGGCAACAUUCCGAGGGGACCGUCCCCUCGGUAAUGGGGAAUGGGACCCA [C21U C75G],0.151
19,GGCCGGCAUGGUCCCAGCCUCCUCGCUGGUGCCGGCUGGGCAACAUUCCGAGGGGAGCGUCCCCUCGGUAAUGGCGAAUGGGACCCA [C30U C57G],0.683
20,GGCCGGCAUGGUCCCAGCCUCCUUUCUGGCGCCGGCUGGGCAACAUUCCGAGGGGACCGUCCCCUCGGUAAUGGCGAAUGGGACCCA [C24U G25U],0.138
21,GGCCGGCAUGGUCCCAGCCUCCUCGCUGGCGCCGGCUGGGCAAGAUUCCGAGGGGACCGGCCCCUCGGUAAUGGCGAAUGGGACCCA [C44G U60G],0.76
22,GGCCGGCAUGGUCCCAGCCUCCUCGCUGGCGCCGGCUGGGCAACAUUCCGAGGGGAACGUUCCCUCGGUAAUGGCGAAUGGGACCCA [C57A C61U],1.14

row,Variant,self-cleavage
1,GGCCGGCAUGGUCCCAGCCUCCUCGCUCGCGCCGGCUGGCCAACAUUCCGAGGGGACCGUCCCCUCGGUAAUGGCGAAUGGGACCCA [G28C G40C],0.113
2,GGCCGGCAUGGUCCGAGCCUCCUCUCUGGCGCCGGCUGGGCAACAUUCCGAGGGGACCGUCCCCUCGGUAAUGGCGAAUGGGACCCA [C15G G25U],0.0354
3,GGCCGGCAUAGUCCCAGCCUGCUCGCUGGCGCCGGCUGGGCAACAUUCCGAGGGGACCGUCCCCUCGGUAAUGGCGAAUGGGACCCA [G10A C21G],0.126
4,GGCCGGCAUGGUCCCAGCCUCAUCGCUGGCGCCGGCUGGGCAACACUCCGAGGGGACCGUCCCCUCGGUAAUGGCGAAUGGGACCCA [C22A U46C],0.0692
5,GGCCGGCAUGGUCCCAGCCUCCUCGCUGGCGCCGGGUGGGCAACAUUCCGAGGGGACCGUCCCCUCGGUAAUGGCCAAUGGGACCCA [C36G G76C],0.0692
6,GGCCGGCAUGGUCCCAGCCUCCUCGCUGGCGCCGGCUGGGCAACAUUCCGAGGGGACUGUCCCCUCGGUAAUGGCUAAUGGGACCCA [C58U G76U],1.02
7,GGCCGUCAUGGUCCCAGCCUCCUCGCUGGCGCCGGCUGGGCAACAUUCCGAGGGGACCGUCCCUUCGGUAAUGGCGAAUGGGACCCA [G6U C64U],0.723
8,GGCCGGCAUGGUCCCAGCCACCUCGCUGGCGCCGGCUGGGCAACAUUCCGAGGGGACCGUCCCCUCGGUAAUGGCAAAUGGGACCCA [U20A G76A],0.135
9,GGCCGGCAUGGUCCCAGCCUCUUCGCUGGCGCCGGCUGGGCAACAUUCCGAGGGAACCGUCCCCUCGGUAAUGGCGAAUGGGACCCA [C22U G55A],0.717
10,GGCCGGCAUGGUCCCAGCCUCCUCGCUUGCGCCGGCUGGGCAACAUUCCUAGGGGACCGUCCCCUCGGUAAUGGCGAAUGGGACCCA [G28U G50U],0.163
11,GGCCGCCAUGGUCCCAGCCUCCGCGCUGGCGCCGGCUGGGCAACAUUCCGAGGGGACCGUCCCCUCGGUAAUGGCGAAUGGGACCCA [G6C U23G],0
12,GGCCGGCAUGGUCCCAGCCUCCUCGCUAGCGGCGGCUGGGCAACAUUCCGAGGGGACCGUCCCCUCGGUAAUGGCGAAUGGGACCCA [G28A C32G],0
13,AGCCGGCAUGGUCCCAGCCGCCUCGCUGGCGCCGGCUGGGCAACAUUCCGAGGGGACCGUCCCCUCGGUAAUGGCGAAUGGGACCCA [G1A U20G],0
14,GGCCGGCAUGGUCCCAGCCUCCUCGCUCGCGCCGGCUGGGCAACAUUCCGAGGGGACCGUCCCCUCGGUAAUGGCGAAUGGGUCCCA [G28C A83U],0.0437
15,GGCCGACAUGGUCCCAGCCUCCUCGCUGGCGCCGGCUGGGCAACAUUCCGAGGGGACCGUCCCCUCGCUAAUGGCGAAUGGGACCCA [G6A G68C],0.604
16,GGCCGGCAUGGUCCCAGCCGCCUCGCUGGCGCCGGCUGGGCAACAUUCCGAGGGGACCGUCCCCUCGGUAAUGGCGAAAGGGACCCA [U20G U79A],0.175
17,GGCCGGCAUGGUCCCAGCCUCCUCGCUGGCGCCGGCUGGGCAACAUUCGGAGUGGACCGUCCCCUCGGUAAUGGCGAAUGGGACCCA [C49G G53U],0.723
18,GGCCGGCAUGGUCCCAGCCUCCUCGCUGGCGCCGGCUGGGCAACAUUCCGAGGGGACCGUACCCUCCGUAAUGGCGAAUGGGACCCA [C61A G67C],0.831
19,GGCCGGCAUGGUCCCAGCCUCCUCGCUGGCGCCGGCUGGGCAACAUUCCGAGGGGACCGUCCCCUCUGUAAUGGCGAAUGGGACCUA [G67U C86U],0.933
20,GGCCGGCAUGGGCCCAGACUCCUCGCUGGCGCCGGCUGGGCAACAUUCCGAGGGGACCGUCCCCUCGGUAAUGGCGAAUGGGACCCA [U12G C18A],0.151
